These results are taken from patent publication US20230060388A1 (SHANGHAI HENLIUS BIOTECH, published 2023).

Experiment [1] has as its target T1, human TIGIT expressed on cells (stably transfected Jurkat cells) (human, UniProt Q495A1 22-244).
T1 construct: Also used here for TIGIT on primary T cells in the MLR; also called h-TIGIT; T cell immunoreceptor with Ig and ITIM domains
T1 sequence: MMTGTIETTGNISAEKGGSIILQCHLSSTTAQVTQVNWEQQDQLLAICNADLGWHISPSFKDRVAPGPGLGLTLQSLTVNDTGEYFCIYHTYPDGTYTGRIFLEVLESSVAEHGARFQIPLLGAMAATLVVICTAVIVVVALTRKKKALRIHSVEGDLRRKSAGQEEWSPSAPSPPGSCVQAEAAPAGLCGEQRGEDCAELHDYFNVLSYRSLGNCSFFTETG
Nature of the experiment: flow cytometry on h-TIGIT transfected Jurkat cells, anti-human IgG Fc Alexa Fluor 488. The source says: FIGS. 3A and 3B depict whole cell binding of humanized 1C12 and 1G1 clones to human TIGIT determined by flowcytometry assays. 1C12-chimeric is an antibody with Llama VHH sequence of 1C12 clone and human IgG1 CH2 and CH3 domains, 1C12 (F-EREF), 1C12 (F-EREW) and 1C12 (F-GLEW) are humanized versions of 1C12 clone with difference of mutations in Framework 2. 1G1-chimeric is an antibody with Llama VHH sequence of 1G1 clone and human IgG1 CH2 and CH3 domains. 1G1 (F-G-ERES), 1G1 (F-A-ERES), 1G1 (F-A-EREW) and 1G1 (F-A-GLEW) are four different versions of humanized 1G1 clones with different mutations in framework 2. Y axis is values of Mean Fluorescence Intensity of AlexaFlour 488. X axis is values of antibody concentrations in nanomolar.
The binding affinities of the humanized bivalent antibodies to human TIGIT were determined by whole cell binding to h-TIGIT stably expressed on Jurkat cells. Briefly, antibodies were incubated with h-TIGIT transfected Jurkat cells (0.2×10⁶/well in 100 μl) for 30 min in FACS buffer. The cells were washed once, then incubated with anti-human IgG Fc AlexaFluor488 (1:500). Mean fluorescence intensity was determined by CytoFlex, and binding affinities of antibodies to h-TIGIT were calculated using non-liner regression by GraphPad Prism 8.0 as shown in FIG. 3A.
Background: In flow cytometry, cells or beads pass a laser one at a time.

In experiment [2] the target is T1, human TIGIT expressed on cells (stably …). The description is as above. The text has this: FIGS. 1A-1C depict whole cell binding of representative VHH bivalent antibodies to human TIGIT determined by flowcytometry assays. […] Y axis represents Mean Fluorescence Intensity of AlexaFlour 488. X axis represents antibody concentrations in nanomolar. 2B7, 1G1, 1C12, 3G6, 2B10, 3G7, 3G10, 13H11, and 15A5 are VHH clones of anti-human TIGIT. FIG. 1C is a schematic of the structure of a TIGIT VHH bivalent antibody.
Binding affinities of the bivalent clones to human TIGIT transfected Jurkat cells were confirmed by flowcytometry assays. Jurkat cells stably expressing human TIGIT and NFAT reporter gene were established. Specifically, Jurkat cells were transfected with human TIGIT expression vector by electroporation, and cells stably expressing human TIGIT were selected by 1 μg/ml puromycin during cell culture. Representative antibody clones were incubated at different concentrations with h-TIGIT stably expressing Jurkat cells (0.2×10^6/ml) in 100 μl/well in 96-well plate in FACS buffer (PBS with 1.5% FBS) for 30 min. After washing, Alexaflour 488 conjugated anti-human IgG Fc secondary antibody (Alexa Fluor® 488 AffiniPure Goat Anti-Human IgG, Fcγ fragment specific, Jackson labs, 1:500 dilution) was added and incubated for 30 min. After washing, mean fluorescence intensity was measured using CytoFlex (Beckman Coulter) by gating live cell population. Binding affinity was calculated using GraphPad Prism.
The source holds these as a separate data set.

Experiment [3] has the same target. The experiment can be described thus: TIGIT WCB: whole cell binding, flow cytometry, h-TIGIT Jurkat cells; mean. The method, then:
Affinity to TIGIT was further examined in whole cell binding assay using human TIGIT transfected Jurkat cells. Antibodies were incubated with h-TIGIT transfected Jurkat cells, and binding of antibodies to h-TIGIT was determined using a secondary anti-human-IgG Fc antibody conjugated with AlexaFluor488, which was detected by flow cytometry.

Experiment [4] shares this target. Nature of the experiment: flow cytometry (whole cell binding) on h-TIGIT transfected Jurkat cells; table under the graph, Average (n=3), SD 71.12.
Experiment [5] shares this target. Nature of the experiment: cell-based or functional assay.
Experiment [6] shares this target. The experiment can be described thus: flow cytometry (whole cell binding) on h-TIGIT transfected Jurkat cells; table under the graph, Average (n=3), SD 0.37.
Experiment [7] has the same target. The experiment can be described thus: flow cytometry (whole cell binding) on h-TIGIT transfected Jurkat cells; table under the graph, Average (n=3), SD 1.61.
Experiment [8] addresses T2, recombinant ECD of human FcγRIIB (human, UniProt P31994 43-217).
T2 construct: extracellular domain
T2 sequence (looked up): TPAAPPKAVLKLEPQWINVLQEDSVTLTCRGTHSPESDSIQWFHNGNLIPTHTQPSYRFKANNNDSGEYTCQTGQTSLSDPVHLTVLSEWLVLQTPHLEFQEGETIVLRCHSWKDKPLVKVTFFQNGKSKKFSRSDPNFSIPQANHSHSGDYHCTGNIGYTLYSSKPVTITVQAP
Nature of the experiment: Octet (ForteBio), receptor ECD loaded on the sensor, antibody at 5 concentrations (not given) [h-FcγRIIB binding]. The text has this: (§1) FIG. 12 depicts binding of 2A3-LT-Fc wild type (wt) and Fc mutations (DLE and VLPLL) to human FcγRIIIA, human FcγRIIB and mouse FcγRIV determined using Octet binding assay. Sensors were loaded with recombinant proteins of ECDs of FcγRIIIA, human FcγRIIB and mouse FcγRIV, association and dissociation of 2A3-LT-Fc wt, DLE or VLPLL mutants at 5 different concentrations were detected using ForteBio. Y axis represents association, dissociation & Rmax. X axis represents time in second. Both DLE and VLPLL mutants had enhanced binding affinity to human FcγRIIIA compared to that of wild type, DLE mutant also had enhanced binding affinity to human FcγRIIB, however VLPLL mutant reduced binding affinity to human FcγRIIB All versions had similar affinity to mouse FcγRIV.
Background: BLI is a label-free optical method that tracks binding on a fibre tip over time.

Experiment [9] has as its target T3, recombinant ECD of mouse FcγRIV (mouse, UniProt A0A0B4J1G0 21-203).
T3 sequence: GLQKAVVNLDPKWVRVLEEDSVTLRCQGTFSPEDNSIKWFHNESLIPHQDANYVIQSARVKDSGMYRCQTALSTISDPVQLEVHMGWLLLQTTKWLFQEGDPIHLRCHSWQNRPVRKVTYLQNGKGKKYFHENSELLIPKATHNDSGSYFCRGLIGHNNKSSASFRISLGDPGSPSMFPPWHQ
Nature of the experiment: Octet (ForteBio), receptor ECD loaded on the sensor, antibody at 5 concentrations (not given) [m- FcγRIV binding].
Source text: as §1

Experiment [10] has as its target human FcγRIIIA expressed on transfected Jurkat cells (human, UniProt P08637 17-254). Nature of the experiment: cell-based or functional assay.
In experiment [11] the target is T1, human TIGIT expressed on cells (stably …). The experiment can be described thus: cell-based or functional assay. This is another data set of the same source.

Positions count from the first letter of the chain named. Names and notes keep the numbering of the source. Read-outs that look alike come from different tables or passages of the source.

By EC50 (read off the curve) is commonly meant the concentration needed to bring the measured effect to its halfway point. What is called EC50 is the concentration giving half of the maximal effect. Higher therefore signals a less potent agent.

human FcγRIIIA expressed on transfected Jurkat cells, sequence (P08637 17-254): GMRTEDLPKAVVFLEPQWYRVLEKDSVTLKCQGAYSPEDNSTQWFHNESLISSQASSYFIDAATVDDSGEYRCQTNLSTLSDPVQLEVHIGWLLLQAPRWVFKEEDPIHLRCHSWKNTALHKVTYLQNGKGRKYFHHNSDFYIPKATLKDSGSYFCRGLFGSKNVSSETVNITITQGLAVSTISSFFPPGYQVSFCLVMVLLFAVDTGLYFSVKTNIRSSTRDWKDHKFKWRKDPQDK

B1: 1G1 bivalent VHH antibody (1G1-chimeric) (Fc fusion)
chain: QVQLVESGGGLVQAGDSLRLSCVASGPSFSSYPMGWFRQGPGKERESVAAISSDGRFTYYAASVKGRFTISKDNAKSAAFLQMNSLKPEDTAVYYCAARDSGSGYYSRAQWYDYWGQGTLVTVSS
notes: Llama VHH of 1G1 with human IgG1 CH2 and CH3; also called chimeric parental clone; not shown: human IgG1 CH2 and CH3 domains
For the molecule B1, the “EC50 (read off the curve)” value in experiment [1] is ~0.07 nM; in experiment [2] it was ~0.09 nM.

B2: 1C12 bivalent VHH antibody (1C12-chimeric) (Fc fusion)
chain: QVQLVESGGGLVQTGDSLRLSCAASSRIFSRYGMGWFRQAPGKEREFVAAISWNGASTTYTDSVKGRFTISRDSAENTTYLQINSLRPEDTAVYYCAADPWGAVKLGTAEYEYWGQGTQVTVSS
notes: Llama VHH of 1C12 with human IgG1 CH2 and CH3; also called chimeric parental clone; not shown: human IgG1 CH2 and CH3 domains
Regarding B2, the “EC50 (read off the curve)” value in experiment [1] was ~0.03 nM; in experiment [2], ~0.04 nM.

B3: anti-TIGIT x anti-PD1 bispecific antibody, LCC version (bispecific antibody, human IgG4 S228P, kappa)
heavy: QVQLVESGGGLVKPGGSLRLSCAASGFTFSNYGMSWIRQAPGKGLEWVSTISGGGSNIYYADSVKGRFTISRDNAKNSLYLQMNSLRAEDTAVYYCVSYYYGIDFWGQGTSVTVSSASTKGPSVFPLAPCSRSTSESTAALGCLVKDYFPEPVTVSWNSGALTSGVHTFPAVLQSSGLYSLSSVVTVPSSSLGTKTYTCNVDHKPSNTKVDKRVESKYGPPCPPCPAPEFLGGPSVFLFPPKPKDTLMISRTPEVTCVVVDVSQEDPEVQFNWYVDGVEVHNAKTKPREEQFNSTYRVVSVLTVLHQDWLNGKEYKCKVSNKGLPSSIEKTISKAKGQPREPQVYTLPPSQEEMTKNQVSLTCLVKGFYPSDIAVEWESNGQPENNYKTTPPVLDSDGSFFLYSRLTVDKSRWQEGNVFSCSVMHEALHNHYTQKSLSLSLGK
light: DIQMTQSPSSLSASVGDRVTITCKASQDVTTAVAWYQQKPGKAPKLLIYWASTRHTGVPSRFSGSGSGTDFTLTISSLQPEDFATYYCQQHYTIPWTFGGGTKLEIKRTVAAPSVFIFPPSDEQLKSGTASVVCLLNNFYPREAKVQWKVDNALQSGNSQESVTEQDSKDSTYSLSSTLTLSKADYEKHKVYACEVTHQGLSSPVTKSFNRGECGSGGSGGSGGSGQVQLVESGGGVVQPGRSLRLSCAASGGSFSSYPMGWFRQAPGKERESVAAISSDLRFTYYADSVKGRFTISRDNSKNTLYLQMNSLRAEDTAVYYCAARTSGVGYYSRAQWYDYWGQGTLVTVSS
notes: VHH 2A3 fused to the C-terminus of the anti-PD1 light chain; also called aTIGITxaPD1-LCC; aTIGITxaPDI-LCC
On to B3, for which the values for the EC50 in experiment [3] and in experiment [4] were 192 nM and 155 nM, respectively. In addition, in [5], the “EC50 (Mean, nM), PD1 + TIGIT Combination Blockade Assay (double blockade)” value (“EC50 (Mean, nM) … (double blockade)” below) came to 0.48 nM. Besides, the “EC50 (Mean, nM), TIGIT Blockade Assay” value in [5] stood at 10.3 nM.

B4: anti-TIGIT x anti-PD1 bispecific antibody, HCN version (bispecific antibody, human IgG4 S228P, kappa)
heavy: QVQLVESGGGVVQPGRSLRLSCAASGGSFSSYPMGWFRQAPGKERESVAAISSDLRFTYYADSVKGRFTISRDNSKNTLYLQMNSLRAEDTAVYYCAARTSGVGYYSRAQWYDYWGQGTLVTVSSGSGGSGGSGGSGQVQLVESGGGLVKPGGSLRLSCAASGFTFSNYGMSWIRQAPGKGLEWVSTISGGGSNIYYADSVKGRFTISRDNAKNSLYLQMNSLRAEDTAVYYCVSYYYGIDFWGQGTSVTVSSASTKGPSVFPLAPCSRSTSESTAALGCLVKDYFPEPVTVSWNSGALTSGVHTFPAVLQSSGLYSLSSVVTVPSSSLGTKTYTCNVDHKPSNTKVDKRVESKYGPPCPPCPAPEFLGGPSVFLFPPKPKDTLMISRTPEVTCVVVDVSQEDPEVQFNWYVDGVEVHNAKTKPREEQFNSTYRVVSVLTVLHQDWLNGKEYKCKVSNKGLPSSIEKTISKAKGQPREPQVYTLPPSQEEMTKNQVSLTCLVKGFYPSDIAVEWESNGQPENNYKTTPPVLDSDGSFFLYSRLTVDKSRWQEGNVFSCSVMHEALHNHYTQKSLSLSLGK
light: DIQMTQSPSSLSASVGDRVTITCKASQDVTTAVAWYQQKPGKAPKLLIYWASTRHTGVPSRFSGSGSGTDFTLTISSLQPEDFATYYCQQHYTIPWTFGGGTKLEIKRTVAAPSVFIFPPSDEQLKSGTASVVCLLNNFYPREAKVQWKVDNALQSGNSQESVTEQDSKDSTYSLSSTLTLSKADYEKHKVYACEVTHQGLSSPVTKSFNRGEC
notes: VHH 2A3 fused to the N-terminus of the anti-PD1 heavy chain; also called aTIGITxaPD1-HCN; BsAb HCN
B4 registered an EC50 in [3] of 0.81 nM. The EC50 in experiment [6] stood at 0.55 nM. In experiment [5], the “EC50 (Mean, nM) … (double blockade)” value worked out at 1.15 nM and the “EC50 (Mean, nM), TIGIT Blockade Assay” value was 2.7 nM.

B5: anti-TIGIT x anti-PD1 bispecific antibody, HCC version (bispecific antibody, human IgG4 S228P, kappa)
heavy: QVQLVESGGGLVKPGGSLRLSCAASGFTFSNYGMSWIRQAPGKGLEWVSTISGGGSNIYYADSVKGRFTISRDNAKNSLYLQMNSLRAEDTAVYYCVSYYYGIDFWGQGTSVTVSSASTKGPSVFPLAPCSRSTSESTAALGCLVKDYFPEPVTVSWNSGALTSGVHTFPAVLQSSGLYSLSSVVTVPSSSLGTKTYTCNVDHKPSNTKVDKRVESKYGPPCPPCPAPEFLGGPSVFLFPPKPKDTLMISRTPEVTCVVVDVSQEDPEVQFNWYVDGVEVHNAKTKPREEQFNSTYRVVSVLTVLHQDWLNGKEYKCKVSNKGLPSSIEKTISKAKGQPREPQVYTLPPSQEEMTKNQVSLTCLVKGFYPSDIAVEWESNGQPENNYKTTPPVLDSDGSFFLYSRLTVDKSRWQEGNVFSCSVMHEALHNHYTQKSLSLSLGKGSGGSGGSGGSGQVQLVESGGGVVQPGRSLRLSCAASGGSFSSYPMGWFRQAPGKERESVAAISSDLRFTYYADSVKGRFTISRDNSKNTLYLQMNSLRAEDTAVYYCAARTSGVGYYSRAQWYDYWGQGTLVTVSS
light: B4 light
notes: VHH 2A3 fused to the C-terminus of the anti-PD1 heavy chain; also called aTIGITxaPD1-HCC
On to B5, for which the EC50 in experiment [7] stood at 4.2 nM; in experiment [3], 4.93 nM. Further, the “EC50 (Mean, nM) … (double blockade)” value in experiment [5] is 2.61 nM. Moreover, in experiment [5], the “EC50 (Mean, nM), TIGIT Blockade Assay” value came out at 25.9 nM.

B6: 2A3-LT-Fc VLPLL (Fc mutations L235V, F243L, R292P, Y300L, P396L) (Fc fusion)
chain: QVQLVESGGGVVQPGRSLRLSCAASGGSFSSYPMGWFRQAPGKERESVAAISSDLRFTYYADSVKGRFTISRDNSKNTLYLQMNSLRAEDTAVYYCAARTSGVGYYSRAQWYDYWGQGTLVTVSSEPKSCDKTHTCPPCPAPELVGGPSVFLLPPKPKDTLMISRTPEVTCVVVDVSHEDPEVKFNWYVDGVEVHNAKTKPPEEQYNSTLRVVSVLTVLHQDWLNGKEYKCKVSNKALPAPIEKTISKAKGQPREPQVYTLPPSREEMTKNQVSLTCLVKGFYPSDIAVEWESNGQPENNYKTTPLVLDSDGSFFLYSKLTVDKSRWQQGNVFSCSVMHEALHNHYTQKSLSLSPGK
notes: also called VLPLL mutant; VPVLL (as misprinted)
As to B6, the binding result in experiment [8] and in experiment [9] was “binds” in each case.

B7: 2A3-LT-Fc-DLE (Fc mutations S239D, A330L, I332E) (Fc fusion)
chain: B6 chain with V145L, S149D, L153F, P202R, L210Y, A240L, I242E, L306P
notes: I332E is printed as 1332E; also called DLE mutant
With B7, the binding result in [8] is on record as “binds”. Also, in [10], the “EC50 (nM), FcγRIIIA-mediated NFAT reporter, Average” value was 0.024 nM; the “EC50 (nM), FcγRIIIA-mediated NFAT reporter, Exp 1” value was 0.027 nM; the “EC50 (nM), FcγRIIIA-mediated NFAT reporter, Exp 2” value came to 0.0295 nM; the “EC50 (nM), FcγRIIIA-mediated NFAT reporter, Exp 3” value came to 0.018 nM. Further, the “EC50 (nM), FcγRIIIA-mediated NFAT reporter, Exp 4” value in [10] was found to be 0.02 nM. In [11], the “EC50 (nM), TIGIT blockade NFAT reporter, Average” value came out at 0.97 nM; the “EC50 (nM), TIGIT blockade NFAT reporter, Exp 1” value came to 0.67 nM; the “EC50 (nM), TIGIT blockade NFAT reporter, Exp 2” value was determined as 0.92 nM; the “EC50 (nM), TIGIT blockade NFAT reporter, Exp 3” value was 1.32 nM. For the same molecule, in experiment [9], the binding result is on record as “binds”.
